Experimental findings from article PMC9318220 are described below.

The target of this experiment is conSOSL.UFO.664 trimer with a C-terminal 8x His-tag (SUFO.664-His) (HIV-1 (consensus S)). The experiment in a line: SEC + native gel or EMSA; SEC on HiPrep 26/60 Sephacryl S-300 HR after lectin affinity; eluted fractions analysed by Native-PAGE with silver stain and Western blot.

The stoichiometry N is a count of units in the complex or per binding partner. As for “conSOSL.UFO.664 trimer with a C-terminal 8x His-tag (SUFO.664-His)”, the stoichiometry N worked out at 3.
